Measured values: the supplement of paper PMC9112550, “Optimization of the antimicrobial peptide Bac7 by deep mutational scanning” (BMC Biology, 2022)

Tested on: Escherichia coli TOP10
Assay: shrunken log2 fold change of peptide-encoding DNA abundance (4.5 h post-induction vs induction); higher = less antimicrobial activity (less host growth inhibition)
Settings: time post-induction: 4.5 h; library: site-saturation at positions 5, 18, 19, 20
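Further: peptides expressed intracellularly from a pBAD plasmid library in pooled LB shake-flask culture, induced with 0.3% L-arabinose, DNA abundance read by NGS, three biological replicates, DESeq2 with apeglm shrinkage.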

In the case of RRIRKRPPRLPRPRPRPCGNPRP, the “shrunken log2 fold change” value is reported as 0.0169.

With RRIRKRPPRLPRPRPRPCHKPRP the “shrunken log2 fold change” value was 0.0108.

In the case of RRIRKRPPRLPRPRPRPCIGPRP, the “shrunken log2 fold change” value is reported as 0.0382.

In the case of RRIRKRPPRLPRPRPRPCPRPRP, the “shrunken log2 fold change” value is reported as 0.163.

For RRIRKRPPRLPRPRPRPCQHPRP, the “shrunken log2 fold change” value was -0.167.

For RRIRKRPPRLPRPRPRPCSMPRP, the “shrunken log2 fold change” value was -0.00483.

With RRIRKRPPRLPRPRPRPCTFPRP the “shrunken log2 fold change” value was 0.00111.

With RRIRKRPPRLPRPRPRPCWPPRP the “shrunken log2 fold change” value was 0.0513.

With RRIRKRPPRLPRPRPRPCYTPRP the “shrunken log2 fold change” value was -0.0178.

With RRIRKRPPRLPRPRPRPDAPPRP the “shrunken log2 fold change” value was 1.46.

RRIRKRPPRLPRPRPRPDCNPRP was tested, and the “shrunken log2 fold change” value was -0.00139.

In the case of RRIRKRPPRLPRPRPRPDDSPRP, the “shrunken log2 fold change” value is reported as -0.0813.

For RRIRKRPPRLPRPRPRPDEQPRP, the “shrunken log2 fold change” value was 2.64.

In the case of RRIRKRPPRLPRPRPRPDESPRP, the “shrunken log2 fold change” value is reported as 0.0701.

With RRIRKRPPRLPRPRPRPDFSPRP the “shrunken log2 fold change” value was 0.0114.

In the case of RRIRKRPPRLPRPRPRPDHLPRP, the “shrunken log2 fold change” value is reported as -0.0896.

With RRIRKRPPRLPRPRPRPDHSPRP the “shrunken log2 fold change” value was -0.148.

RRIRKRPPRLPRPRPRPDHWPRP was tested, and the “shrunken log2 fold change” value was 0.355.

For RRIRKRPPRLPRPRPRPDICPRP, the “shrunken log2 fold change” value was 0.0913.

For RRIRKRPPRLPRPRPRPDLAPRP, the “shrunken log2 fold change” value was 0.042.

RRIRKRPPRLPRPRPRPDLEPRP was tested, and the “shrunken log2 fold change” value was 0.0158.

In the case of RRIRKRPPRLPRPRPRPDMRPRP, the “shrunken log2 fold change” value is reported as 0.0676.

With RRIRKRPPRLPRPRPRPDMTPRP the “shrunken log2 fold change” value was 1.34.

With RRIRKRPPRLPRPRPRPDPVPRP the “shrunken log2 fold change” value was -0.146.

In the case of RRIRKRPPRLPRPRPRPDQGPRP, the “shrunken log2 fold change” value is reported as -0.0154.

For RRIRKRPPRLPRPRPRPDQVPRP, the “shrunken log2 fold change” value was 0.0449.

RRIRKRPPRLPRPRPRPDTMPRP was tested, and the “shrunken log2 fold change” value was 0.224.

For RRIRKRPPRLPRPRPRPDVWPRP, the “shrunken log2 fold change” value was 0.679.

In the case of RRIRKRPPRLPRPRPRPEACPRP, the “shrunken log2 fold change” value is reported as 0.0762.

In the case of RRIRKRPPRLPRPRPRPEDTPRP, the “shrunken log2 fold change” value is reported as 0.103.

For RRIRKRPPRLPRPRPRPEESPRP, the “shrunken log2 fold change” value was 0.0563.

With RRIRKRPPRLPRPRPRPEEYPRP the “shrunken log2 fold change” value was 0.0303.

With RRIRKRPPRLPRPRPRPEGDPRP the “shrunken log2 fold change” value was 1.24.

For RRIRKRPPRLPRPRPRPEGEPRP, the “shrunken log2 fold change” value was -0.0225.

For RRIRKRPPRLPRPRPRPEHCPRP, the “shrunken log2 fold change” value was 0.0607.

With RRIRKRPPRLPRPRPRPELCPRP the “shrunken log2 fold change” value was -0.021.

With RRIRKRPPRLPRPRPRPELFPRP the “shrunken log2 fold change” value was 0.155.

For RRIRKRPPRLPRPRPRPELLPRP, the “shrunken log2 fold change” value was 0.394.

For RRIRKRPPRLPRPRPRPELWPRP, the “shrunken log2 fold change” value was 1.42.

With RRIRKRPPRLPRPRPRPEMGPRP the “shrunken log2 fold change” value was 0.502.

RRIRKRPPRLPRPRPRPEPQPRP was tested, and the “shrunken log2 fold change” value was 0.637.

RRIRKRPPRLPRPRPRPEPVPRP was tested, and the “shrunken log2 fold change” value was 0.0885.

In the case of RRIRKRPPRLPRPRPRPEQKPRP, the “shrunken log2 fold change” value is reported as 0.125.

With RRIRKRPPRLPRPRPRPERYPRP the “shrunken log2 fold change” value was -0.0119.

With RRIRKRPPRLPRPRPRPESEPRP the “shrunken log2 fold change” value was 2.93.

In the case of RRIRKRPPRLPRPRPRPESMPRP, the “shrunken log2 fold change” value is reported as 0.603.

With RRIRKRPPRLPRPRPRPETFPRP the “shrunken log2 fold change” value was -0.00962.

With RRIRKRPPRLPRPRPRPETIPRP the “shrunken log2 fold change” value was 0.0906.

With RRIRKRPPRLPRPRPRPETNPRP the “shrunken log2 fold change” value was 2.35.

With RRIRKRPPRLPRPRPRPEYIPRP the “shrunken log2 fold change” value was -0.367.

For RRIRKRPPRLPRPRPRPFAVPRP, the “shrunken log2 fold change” value was -0.14.

With RRIRKRPPRLPRPRPRPFCDPRP the “shrunken log2 fold change” value was 0.144.

In the case of RRIRKRPPRLPRPRPRPFDCPRP, the “shrunken log2 fold change” value is reported as -0.128.

RRIRKRPPRLPRPRPRPFDIPRP was tested, and the “shrunken log2 fold change” value was -0.0132.

RRIRKRPPRLPRPRPRPFDWPRP was tested, and the “shrunken log2 fold change” value was 0.243.

RRIRKRPPRLPRPRPRPFFFPRP was tested, and the “shrunken log2 fold change” value was 0.779.

For RRIRKRPPRLPRPRPRPFGSPRP, the “shrunken log2 fold change” value was -0.00822.

For RRIRKRPPRLPRPRPRPFHAPRP, the “shrunken log2 fold change” value was -0.179.

In the case of RRIRKRPPRLPRPRPRPFHHPRP, the “shrunken log2 fold change” value is reported as -0.131.

RRIRKRPPRLPRPRPRPFHSPRP was tested, and the “shrunken log2 fold change” value was 0.00367.
